Reference: paper PMC3750474

Tests used:
[1] = molecular target: HIV-1 capsid CAN (Human immunodeficiency virus 1) (UniProt O93182); details: cited from earlier work
[2] = molecular target: HIV-1 M-group (NL4-3) N-terminal capsid domain (HIV-1 M-group (NL4-3))
[3] = molecular target: HIV-1 M-group (NL4-3) N-terminal capsid domain (HIV-1 M-group (NL4-3)); assay: ITC; MicroCal ITC200, 15°C, 50 mM potassium phosphate pH 7.4, 100 mM NaCl, 1 mM DTT; NUP358Cyp (typical 2.5 mM) in the syringe, capsid domain (typical 0.2 mM) in the cell; one set of binding sites model
[4] = molecular target: HIV-1 M-group (NL4-3) N-terminal capsid domain; assay: ITC

Row | Substance | Kd [1] [µM] | rate of cis-trans isomerization of the capsid G89-P90 bond catalysed by NUP358Cyp (NMR ZZ-exchange; 430 μM CA^N, 35 μM NUP358Cyp, 298 K) [2] [s⁻¹] | Kd [3] [µM] | other: N (stoichiometry) [4] | other: ΔH [4] [kcal/mol] | other: ΔS ((cal/mol)/deg) [4]
1 | NUP358 Cyp (from UniProt P49792) | 200 | – | – | – | – | –
2 | cyclophilin domain from human NUP358 (from UniProt P49792 3057-3224) (domain or fragment) | – | 12.1 | 94 | – | – | –
3 | cyclophilin domain from human NUP358 (from UniProt P49792) V61M; V113F | – | – | – | 1.43 | -7.45 | -5.26
4 | cyclophilin domain from human NUP358 (from UniProt P49792) V113F | – | – | – | 0.74 | -10.8 | -16.5
